Test results taken from patent US20220259316A1 (SINOCELLTECH, published 2022).

Molecular target: T1, EGFR ECD recombinant protein (UniProt P00533 25-645, limits assumed)
T1 construct: extracellular domain; also called erbB1; Her1
Assay: method not stated; recombinant EGFR ECD protein

B1: recombinant fully human anti-EGFR monoclonal antibody N6-3 (antibody, human IgG1, kappa, V domains shown)
VH: QVQLQESGPGLVKPSETLSLTCTVSGGSVSSGDYYWSWIRQSPGKGLEWIGHIYYSGNTNYNPSLKSRLTISIDTSKNQFSLKLSSVTAADTAIYYCVRDRVTGAFDIWGQGTMVTVSS
VL: DIVMTQSPSTLSASVGDRVTITCQASQDISNYLNWYQQKPGKAPKLLIYDASSLETGVPSRFSGSGSGTDFTFTISGLQPEDIATYFCQHFDHLPLAFGGGTKVEIKR
notes: also called recombinant human anti-EGFR monoclonal antibody (N6-3)
  Kd: 0.05 nM
